According to paper PMC4255524:

How the values were obtained:
[1] = target: N-terminal domain of Chlamydomonas reinhardtii BBS1 (residues 1–425) (Chlamydomonas reinhardtii); assay: ITC
[2] = target: N-terminal domain of Homo sapiens BBS1 with the patient mutation E234K (Homo sapiens) (UniProt Q8NFJ9); assay: ITC
Chain of UniProt Q8NFJ9 (Q8NFJ9 1-417 E234K): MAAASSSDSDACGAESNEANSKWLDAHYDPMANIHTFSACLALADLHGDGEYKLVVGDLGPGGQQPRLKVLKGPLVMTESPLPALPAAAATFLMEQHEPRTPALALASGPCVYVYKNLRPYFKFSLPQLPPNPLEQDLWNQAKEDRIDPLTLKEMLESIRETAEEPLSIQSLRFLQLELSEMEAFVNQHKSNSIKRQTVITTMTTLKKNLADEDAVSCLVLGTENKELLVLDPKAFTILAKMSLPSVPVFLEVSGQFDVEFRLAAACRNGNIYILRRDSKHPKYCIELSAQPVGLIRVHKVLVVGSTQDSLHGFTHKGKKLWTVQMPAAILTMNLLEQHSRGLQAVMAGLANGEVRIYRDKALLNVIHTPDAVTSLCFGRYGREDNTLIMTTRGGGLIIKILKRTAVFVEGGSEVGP

Kd [2] [nM] | Molecule | Kd [1] [nM] | stoichiometry N [1]
– | Chlamydomonas reinhardtii ARL6ΔN (residues 1–15 deleted), GTP-bound (domain or fragment) | 350 | 1
350 | untagged Homo sapiens ARL6 Q73L ΔN (domain or fragment) KEVHVLCLGLDNSGKTTIINKLKPSNAQSQNILPTIGFSIEKFKSSSLSFTVFDMSGLGRYRNLWEHYYKEGQAIIFVIDSSDRLRMVVAKEELDTLLNHPDIKHRRIPILFFANKMDLRDAVTSVKVSQLLCLENIKDKPWHICASDAIKGEGLQEGVDWLQDQIQTVKT | – | –
